Test results taken from patent US20150351390A1, “COMPOSITIONS AND METHODS FOR AUXIN-ANALOG CONJUGATION” (PIONEER HI-BRED INTERNATIONAL, INC., priority 2012, published 2015).

Columns and labels:
[1] = LC-MS assay of GH3 conjugation of IAA with Asp or Glu; format: biochemical; conditions: for kcat (hrs−1) IAA-Asp: conjugation of IAA with Asp by recombinant GH3 protein, IAA-Asp product by LC-MS; for kcat (hrs−1) IAA-Glu: conjugation of IAA with Glu by recombinant GH3 protein, IAA-Glu product by LC-MS; for IAA conjugation activity with Asp or Glu: result in words
Description: (§1) To detect and monitor the formation of acyl conjugates with 2,4-D or dicamba, a sensitive LC-MS method was developed using the respective amino acid conjugate standards. […] The reaction was performed at 30° C., 105 rpm, for 3 hours in buffer containing 20 mM Tris-HCl (pH 8.0), 5 mM MgCl2, 5 mM auxin (IAA, 2,4-D or dicamba), 5 mM ATP, 5 mM Asp or Glu, 1 mM DTT and 44 to 164 μg/mL purified GH3 protein in 100 μL reaction. After 3 hours of reaction, 400 μL 100% MeOH was added to the reaction mixture for protein precipitation. The supernatant was diluted 20× in water and then analyzed by LC-MS (AB Sciex 4000 QTrap coupled with Shimadzu Nexera UHPLC) using a Phenomenex Luna 3 μm Phenyl-Hexyl (00B-4256-Y0) column. The concentration of the conjugates was calculated based on the standards. Kinetic parameters were estimated by fitting initial velocity values to the Michaelis-Menten equation.
(§2) The GH3 superfamily conjugase activity analysis of IAA, 2,4-D or dicamba with Asp or Glu was done using LC-MS to analyze the final conjugate products as described in Example 1. Protein sequences of GH3 homologs (Table 3) were obtained from public databases (NCBI, http://www.ncbi.nlm.nih.gov/) by Blast analysis of AtGH3.17 protein sequence (accession # Q9FZ87). Coding sequences were designed for optimal expression in E. coli based on the protein sequences and synthesized. Synthesized coding sequences along with N-term his-tag coding sequences were cloned into a pET24a-based E. coli expression vector. The E. coli expression vectors were transformed into OverExpress C41(DE3) cells (Lucigen) for protein expression. Recombinant E. coli strains were inoculated into 5 ml LB media supplemented with 40 mg/L kanamycin and cultured overnight at 37° C. The overnight culture (0.5 mL) was inoculated into 50 mL LB medium plus 40 mg/L kanamycin and grown at 30° C. until OD600 reached 0.6. The cultures were induced with 0.2 mM IPTG at 16° C., 230 rpm overnight. Cells were harvested by centrifugation at 7,000 rpm for 10 mins. The cell pellet from 50 mL of cell culture was frozen and thawed twice and then lysed in 800 μL lysis buffer A (150 mM NaCl, 50 mM Tris-HCl pH 8.0, 5 mM MgCl2, 10% glycerol) plus 20 mM imidazole, 1 mM DTT, 0.2 mg/ml lysozyme, 1/200 protease inhibitor cocktail (EMD set3, EDTA free) and 1/2000 endonuclease. Lysate was then centrifuged at 13,000 rpm for 30 min at 4° C. Supernatant was loaded onto 200 μL Ni-NTA columns pre-equilibrated with buffer A with 20 mM imidazole at 4° C. Each column was then washed with (1) 2×800 μL of buffer A with 10 mM imidazole, (2) 2×800 μL of buffer A with 20 mM imidazole and (3) 2×200 μL of buffer A with 50 mM imidazole. Protein was eluted with 200 μL of buffer A with 250 mM imidazole. The concentration was measured by Bradford assay. Purified protein was used in conjugation reaction assays as described in example 1.

[2] = LC-MS assay of GH3 conjugation of 2,4-D with Asp or Glu; format: biochemical; conditions: for kcat (hrs−1) 2,4-D-Asp: conjugation of 2,4-D with Asp by recombinant GH3 protein, 2,4-D-Asp product by LC-MS; for kcat (hrs−1) 2,4-D-Asp / kcat (hrs−1) 2,4-D-Glu: 5 mM 2,4-D substrate; for kcat (hrs−1) 2,4-D-Glu: conjugation of 2,4-D with Glu by recombinant GH3 protein, 2,4-D-Glu product by LC-MS; for 2,4-D conjugation activity with Asp or Glu: result in words
Description: as §1, §2

Row | Molecule | kcat (hrs−1) IAA-Asp [1] [h⁻¹] | kcat (hrs−1) IAA-Glu [1] [h⁻¹] | IAA conjugation activity with Asp or Glu [1] | kcat (hrs−1) 2,4-D-Asp [2] [h⁻¹] | kcat (hrs−1) 2,4-D-Glu [2] [h⁻¹] | 2,4-D conjugation activity with Asp or Glu [2]
1 | PpGH3-1: GH3 protein, accession CAD42870 (protein, listed as Physcomitrella patens) MASEVAKPVENGIHPKLEQSFDAPAATKPSNSELLKLHRDGVPFVMPSKRGIDTTAPDFDPQDFLDLLAEDVMFIQHEKLREILEVQADVEYLRRVGLNGRTDVESFRKCVPIVSYGDLEADIMRVVNGEKTPIFTVDPIVTLNLSSGTTAGKPKFIPSTTRAYEYFMFLQTFVTSIYRREFPGYKDGTSFTLAFAGKQIDTPSGIKAGAQSTNHFRGPMFRNRVRNANREYCVPDEVILSDDTTQSMYCHLLCALAQAPEIVKVYGTFAASIVSAVRALQKHWSEIVEDIRTGTLNAKITEPEMRTAVQQMLHPNPDLASRIEEECSKDNWEGILPRLFPNAHFVSCVISGSMLQYAPALKHFSGHLPTISLAYAACECSFIGFNPSMKCAPEDITYMLWPETAYYEFIPLDEDSNPEQDGDVVRTVEACDLEVGRQYELVVTNVIGLYRYRLGDVLTMKRFHKTAPVFEFVRRKNVILSVHTDKTDEKELQSVVNLATEALAGTGMELSDYTSTADVSTLPGRYVIFWEMVDSSDLDYDVLQHCANTLDANFNSDYRRWRSGHQIGPLELRIVKEGTFNRVMDSAVARGASPSQYKPPRCVNNPHTRQILDDGLVASFHSTITPNPAPIALTGS | 0.000 | 0.000 | IAA-inactive | 0.078 | 0.122 | 2,4-D conjugases
2 | SmXP_002983845: GH3 protein, accession XP_002983845 (protein, listed as Selaginella moellendorffii) MENEQLLLEKLESSSWSPGEAQDKVLAEILEKNAATDYFNRHGLRAATKEVFRQRAPVIEYEDIKDEINRIADGEAATLLCANPIADMFTSSGTSGGAHKLFPKVEGHYAVSKYFFDLATALLNRDLPGLRTGKALYFLYVRSGRKTPGGLPAYPALTGYYNSLEFRNRPFDPSNDYTSPLEVILCTDSVQASYCHLLCGLIHARDVTKLGCFFASVFVRSIRCLEAWWQELSRDIRTGTLSERVVDPACREAVEKILRPDPELANVIDEACSSGSLKGIVRKLWPSAKAIDTVVTGAMEQYVGEVDYLTDGLPIASMIYASSESFFGVNLKPLCEPSQISYMFLPETSYYEFLPVARSEEKASREEPVELVDVEQGHEYELVITTNAGLYRYRMGDVLRVEGFHNKAPLFSFVCRTNVLLSIDSDKTDEKELQTAVMNAFAALRNGVTSKEGEAIRLTDYTSYADLSSNPPHYVIYWELSSELHLEPEKAGECCYKMEESLSVVYHRGRMERSIGALELRLVTPGTFNRIADDAASRGGSVSQFKLPRCIKKNATRMLEIVESGVYQQYFSPRAPKY | 0.000 | 0.000 | IAA-inactive | 0.090 | 0.052 | 2,4-D conjugases
3 | AtGH3-9: GH3 protein, accession O82243 (protein, listed as Arabidopsis thaliana) MDVMKLDHDSVLKELERITSKAAEVQDNILRGILERNKDTEYLSKYMNGSKDVLEFKRAVPIIIYKDIYPYIQRIANGEDSSLITGHSITEILCSSGTSAGEPKLMPTIPEDLDRRTFLYNLIIPIVNKYITGLDKGKAMYLNFVKAETSTPCGLPIRAVLTSYYKSKHFQCRPYDPFNDLTSPIQTILCEDSNQSMYCQLLAGLIHRHKVMRLGAVFASAFLRAISYLEKKWSQLCEDIRTGSLNPMITDPGCQMAMSCLLMSPNPELASEIEEICGRSSWKGILCQLWPKAKFIEAVVTGSMAQYIPALEFFSQGKIPLVCPMYASSETYFGVNVEPLSKPSDVVFTLLPNMCYFEFIPLGKNGTLSFDLDDDEQVPCDKVVDLVNVKLGRYYELVVTTFAGLYRYRIGDVLQVAGFYNGAPQFRFICRRNVVLSIDLDKTNEEDLHRSITLAKKKLGSNAFLAEYTSYADTSSVPGHYVLFWEIQGHLEPKLMEECCVAVEEELDYIYRQCRTKERSIGALEIRVVKPGTFEKLMDLIISQGGSFNQYKTPRCVKSNSATFKLLNGHVMASFFSPRDPTWVP | 0.000 | 0.000 | IAA-inactive | 0.000 | 0.005 | 2,4-D conjugases
4 | SmXP_002986992: GH3 protein, accession XP_002986992 (protein, listed as Selaginella moellendorffii) MEDFEAVCKNAVQAQEEALVQILQRNGSCHYLQRFGQPLCLKSFKTQLPIISYDNISPELQQIADHGTSHLLLGCDPILYFSFSSGTSSGKHKILPQTNCGYSLLARAYASSNAYRDEVFPLESTKPIGLHFVYSGEQYKAKSGLLLGAGSTNYYKSEAYNQEAETLATPYEALLAGSDWQQTTYCHLLCGLVQRHKIEFIHATFAYTLSEAFRLLESDWKILCEDISARRVSESKVTDEKLRVPVLKLMERELRGKDSSQVAREISEIFVTSKESRWSGLLPLLWPRAKYVHTVVTGAMEPYIPVLKKYAGDKLAIVGFDYSASEGYLGINMRPATPPEEVVFTLIPYTMFFEFIPVDPEEVPDHQQGETLGFKDLQVGKQYELVVTTFEGLYRYRIGDVVKVTGFHHESPIVAFSYRKNAVLSINAEKVDEQELQKVVMGSAGPLEIANFTSCADFATKERPHYVIYWELKNDGDNSRHEELRDSCNALDRGFNAAYLVGRVDKTLGALELVTVKQGTFEKLMEKAIESGASASQYKTPRCIKSPALLELLDQGAIGRYTSSEDISSLLAEDWKPSVIHGL | 0.000 | 0.000 | IAA-inactive | 0.000 | 0.006 | 2,4-D conjugases
5 | AIGH3-9: GH3 protein, accession EFH58389 (protein, listed as Arabidopsis lyrata) MDVMKLDYNYKGGNALTELERITSKAAEVQDNILCGILERNKDTEYLSKYMKGSKDVVEFKRSVPIITYKDIYPYIQRIANGEDSSLITGHPITEILCSSGTSAGEPKLMPTISEDLDRRTFLYNLIIPIVNKYIPGLDKGKAMYLNFVKAETSTPCGLPIRAVLTSYYKSKHFQCRPYDPFNDLTSPIQTILCEDSNQSMYCQLLAGLIHRHKVMRLGAVFASAFLRAISYLEKKWSQLCEDIRTGRLNPMITDPGCQIAMSCLLTSPDPELASEIEEICSRSSWKGILCHLWPRAKFIEAVVTGSMAQYIPALEFFGQGKIPLVCPMYASSETYFGVNVEPLSKPSDVVFTLLPNMCYFEFIPLGKNGALSFDLDDDEQVPCDKVVDLVNVKLGRYYELVVTTFAGLYRYRIGDVLQVAGFYNEAPQFRFICRRNVVLSIDLDKTNEEDLHRSITLAKKKLGSNAFLAEYTSYADTSSVPGHYVLFWEIQGHLEPKLMEGCCVAVEEELDYIYRQCRTKERSIGALEIRVVKPGTFEKLMDLIISQGGSFNQYKTPRCVKSNSATFKLLNGHVTASFFSPRDPTWVA | 0.000 | 0.000 | IAA-inactive | 0.000 | 0.015 | 2,4-D conjugases
